Experimental findings from article PMC6289461, “Mek1 coordinates meiotic progression with DNA break repair by directly phosphorylating and inhibiting the yeast pachytene exit regulator Ndt80” are described below.

The series addresses T1, 6xHis-Ndt80 5D DBD (Saccharomyces cerevisiae, UniProt P38830 1-340, S24D;S205D;T211D;S327D;S329D).
T1 sequence: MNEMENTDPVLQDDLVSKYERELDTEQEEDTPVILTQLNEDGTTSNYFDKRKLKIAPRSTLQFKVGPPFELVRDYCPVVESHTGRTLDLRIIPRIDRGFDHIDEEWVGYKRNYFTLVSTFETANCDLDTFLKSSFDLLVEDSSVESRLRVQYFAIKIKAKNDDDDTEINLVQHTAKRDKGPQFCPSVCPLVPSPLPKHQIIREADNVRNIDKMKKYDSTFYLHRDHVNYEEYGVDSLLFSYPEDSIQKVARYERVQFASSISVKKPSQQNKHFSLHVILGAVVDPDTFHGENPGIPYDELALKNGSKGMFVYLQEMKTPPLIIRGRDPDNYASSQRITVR
Briefly: EMSA; 50 nM DBD, 50 nM duplex; EMSA: 10 mM Tris-HCl pH 7.5, 40 mM NaCl, 4 mM MgCl2, 6% glycerol, 10 mg/ml BSA, 10 ug/ml sonicated salmon sperm DNA; 20 ul, room temperature, 30 min; 6% PAGE in 0.5X TBE. The settings on record: protein: recombinant, tags: N-terminal 6xHis (pET-28a), blunt. In general terms: Mobility shift assays separate free from complexed probe on a gel.

B1: Cy5-Scr duplex (dsDNA)
DNA 1: ATTGACGCGGCTTCATCTCACGTATCATT
DNA 2: AATGATACGTGAGATGAAGCCGCGTCAAT
For B1, the binding result (label: 5' Cy5 on strand 1) is reported as “no binding”.

B2: Cy3-MSE (SPS4 MSE duplex) (dsDNA)
DNA 1: ATTGACGCGCGCCACAAAAACGTATCATT
DNA 2: AATGATACGTTTTTGTGGCGCGCGTCAAT
Consider B2, for which the binding result (label: 5' Cy3 on strand 1) is “no binding”.
